Patent US20230287088A1 (BIONTECH, published 2023)
Changes are numbered by the printed parent chain.

B1: P043.A.00036.C07 (antibody, V domains shown)
VH: QSLEESGGDLVKPGASLTLTCTASGFSFSSSYWICWVRQAPGKGLEWIGCIYTGSGSTWYASWAKGRFTISKTSSTTVTLQMTSLTAADTATYFCARGYGSYMYDFWGPGTLVTVSS
VL: DVVMTQTPASVEAAVGGTVTIKCQASQSISTALAWYQQKPGQPPKLLIYSASTLESGVPSRFKGSGSGTEFTLAISDLESADAATYYCQGADGSSSSFGGGTEVVVK
notes: also called 448; protein sample ID 448
B2: P043.A.00095.D06 (protein sample ID 470) (antibody, V domains shown)
VH: QEQLEESGGDLVKPEGSLTLTCTASGFSFSSNYWICWVRQAPGKGLEWIGCIYIGSGDTYYASWAKGRFTISKTSSTTVTLQMTSLTAADTATYFCARSYTPGSYYNMNLWGPGTLVTVSS
VL: DVVMTQTPSSVSAAVGGTVTINCQASQQISNELSWYQQKSGQPPKLLIYDASDLASGVPSRFKGSGSGTEFTLTISDLESADAATYYCQSTGGASSDGNAFGGGTEVVVK
notes: also called S1 targeting antibody 470; anti-S1-antibody 470
B3: P043.A.00023.E05 (antibody, V domains shown)
VH: QSLEESGGRLVTPGTPLTLTCTVSGFSLSSYAMSWVRQAPGKGLEWIGIISSSGSTYYASWAKGRFTISKTSTTVDLKITSPTTEDTATYFCARDASSRGYYYYYGMDPWGPGTLVTVSS
VL: AIQMTQSPSSLAASVGDTVTITCKASEDIGYGLNWYQQKLGIAPKLLIYGANTLESGVPSRFSGSGSETDYTLTISSVQAEDAGIYYCQQGYSTPLTFGAGTKVEIK
notes: also called 443; protein sample ID 443
B4: P043.A.00020.D06 (protein sample ID 444) (antibody, V domains shown)
VH: QSVEESGGRLVTPGTPLTLTCTVSGFSLSSYAMNWVRQAPGKGLEWIGIISSSGSTYYASWAKGRFTISKTSTTVDLKITSPTTEDTATYFCARVGAGYAGYGYDNYYGMDPWGPGTLVTVSS
VL: B3 VL
B5: P043.A.00023.A08 (protein sample ID 446) (antibody, V domains shown)
VH: QSVEESGGRLVTPGTPLTLTCTVSGFSLSKYAMSWVRQAPGKGLEWIGIISSGGSTYYASWAKGRFTISKTSSTTVDLKITSPTTEDTATYFCARAGYPGYSPHYFNIWGPGTLVTVSL
VL: B3 VL with G32E, S63T, L96P
B6: P043.A.00092.C12 (antibody, V domains shown)
VH: QEELKETGGGLVQPGGSLTLSCKASGFDFSSYYMSWVRQAPGKGLEWIGVIYASKGSTDYASWVNGRFTISSDNAQNTVDLQMNSLTAADTATYYCARSKRFYTYGYAGYAYAHYYYGMDLWGPGTLVTVSS
VL: B3 VL with N52D
notes: also called 472; protein sample ID 472
B7: P043.A.00017.E07 (protein sample ID 449) (antibody, V domains shown)
VH: QSVEESGGRLVTPGTPLTLTCTVSGFSLSSYAMSWVRQAPGKGLEWIGIISSSGSTYYASWAKGRFTISKTSTTVDLKITSPTTEDTATYFCARAMYPGYSTGVYNIWGPGTLVTVSL
VL: B3 VL with G32E, S93N, L96N
B8: P043.A.00097.B02 (antibody, V domains shown)
VH: QELVESGGGLVQAGESLKLSCKASGIDFSSYGISWVRQAPGKGLEWIAYIYPGFGITNYANSVKGRFTISSDNAQNTVFLQMTSLTASDTATYFCTRAYASSSGYYIHYFNLWGPGTLVTVSS
VL: B3 VL with G91A
B9: P043.A.00017.E04 (antibody, V domains shown)
VH: QSVEESGGRLVTPGTPLTLTCTVSGFSLNNYAMNWVRQAPGKGLEWIGIISSSGNTYYANWAKGRFTISKTSTTVDLKITSPTTEDTATYFCARDSYPGYSPYYGMDPWGPGTLVTVSS
VL: B3 VL with G30A, A43T, D70H, S93N, L96P
B10: P043.A.00024.C11 (protein sample ID 451) (antibody, V domains shown)
VH: B3 VH with L3V, S55T, R65P, D95G, A96G, S97A, S98G, R99Y, Y102A, Y103H
VL: B3 VL
B11: P043.A.00018.C02 (protein sample ID 450) (antibody, V domains shown)
VH: B3 VH with L3V, S51N, S53G, G54R, S97T, R99I, Y103R
VL: B3 VL
B12: 408: Antibody anti-S1 antibody (LS) (antibody)
heavy: not shown
light: […]
B13: P043.A.00047.H08 (protein sample ID 447) (antibody, V domains shown)
VH: QSLEESGGDLVKPGASLTLTCTASGFSFSSDGMCWVRQAPGKGLEWIACIAAGSSGSTYYATWAQGRFTISKSSSTTVTLQMTSLTAADTATYFCAGEDYTGNNYYALWGPGTLVTVSS
VL: AIDMTQTPSPVSAVVGDTVTINCQASENIYSFLAWYQQKPGQPPKLLIYFASKLASGVPSRFKGSGSGTQFTLTISDVHSDDAAIYYCQQTGTYSDADNTFGGGTEVVVK
notes: also called antibody with the Protein sample ID 447
B14: P043.A.00032.C04 (antibody, V domains shown)
VH: QSLEESGGRLVTPGTPLTLTCTASGFSLSSYWMSWVRQAPGKGLEWIGIIYVSGSTYYASWAKGRFTISKTSTTVDLKMTSLTTEDTATYFCARVDYSTGWPLFNIWGPGTLVTVSL
VL: AQVLTQTASPVSAAVGGTVTINCQSSQSVYDNNWLGWYQQKPGQPPKLLIYGASILASGVPSRFKGSGSGTQFTLTISDLESDDAATYYCQGGCSGNTFVFGGGTEVVVK
notes: also called 452; protein sample ID 452
B15: P043.A.00109.B12 (antibody, V domains shown)
VH: QSLEESGGGLVKPEGSLTLTCKASGFDLNTYYYMCWVRQAPGKGLEWIACIATSDSGHTAYASWARGRFTISKTSSTTVTLQMTGLTAADTATYFCARGGRSVGDGVDLWGPGTLVTVSS
VL: DIVMTQTPASVEAAVGGTVTIKCQASQSISSWLAWYQQKPGQPPKLLIYDASDLASGVPSRFKGSGSGTEFTLTISDLESADAATYYCQSYLYVESGSHGFGFGGGTEVVVR
notes: also called 468; protein sample ID 468
B16: P043.A.00117.C08 (protein sample ID 469) (antibody, V domains shown)
VH: B15 VH with A52G
VL: B15 VL with S52F, V94G

Each binder was assayed against SARS-CoV-2 S1 protein (HIS tag, active trimer; Acro Biosystems #SPN-C52H8) (SARS-CoV-2, UniProt P0DTC2 16-1213) (assay: ELISA on coated S active trimer).
In the case of B1, the EC50 is reported as 7.7 ng/mL.
B2 showed an EC50 of 6.9 ng/mL.
Work on B3 yielded an EC50 of 9 ng/mL.
B4 gave an EC50 of 11.2 ng/mL.
B5 gave an EC50 of 5.6 ng/mL.
B6 gave an EC50 of 10.6 ng/mL.
In the case of B7, the EC50 is reported as 6.6 ng/mL.
B8 was tested, and the EC50 was 6.9 ng/mL.
B9 gave an EC50 of 6.4 ng/mL.
B10 gave an EC50 of 8.8 ng/mL.
B11 was tested, and the EC50 was 6.6 ng/mL.
Work on B12 yielded an EC50 of 25.6 ng/mL.
In the case of B13, the EC50 is reported as 9.1 ng/mL.
Binder B14 has an EC50 of 8.2 ng/mL.
Work on B15 yielded an EC50 of 10 ng/mL.
Binder B16 has an EC50 of 7.8 ng/mL.
